In US20240076396A1 (Regeneron, published 2024):

How the values were obtained:
[1] = molecular target: T1, hGITR.mmH (soluble monomeric recombinant human GITR ectodomain protein) (human); test: SPR Biacore 2000 25C; CHOt supernatant antibody captured on anti-human Fc; 100 nM hGITR.mmH
T1 construct: also called monomeric human GITR
T1 chain: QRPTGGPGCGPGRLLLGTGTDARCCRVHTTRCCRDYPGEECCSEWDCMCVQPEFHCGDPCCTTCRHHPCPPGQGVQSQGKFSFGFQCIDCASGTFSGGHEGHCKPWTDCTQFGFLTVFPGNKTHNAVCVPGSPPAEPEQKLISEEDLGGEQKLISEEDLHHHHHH
Method: Biacore experiments for antibodies secreted in conditioned culture medium were performed as follows. Using a Biacore 2000 instrument at 25° C., antibodies were captured for 80 seconds at a flow rate of 8 uL/min on a CM5 anti-humanFc-coupled surface. Approximately 1000-2000 RU of each antibody were captured. 100 nM hGITR.mmH (soluble monomeric hGITR, SEQ ID NO: 45) or 50 nM hGITR.mFc (dimeric Macaca fasicularis GITR, SEQ ID NO: 46) were injected over this surface for 2 minutes at a flow rate of 50 uL/min. Dissociation was measured for 2 minutes. The KD and t_{1/2} were calculated by fitting the double-referenced sensorgrams to a 1:1 binding model.

[2] = molecular target: T1, hGITR.mmH (soluble monomeric …); test: blocking ELISA: 1.5 nM hGITR.mmH pre-incubated with antibody, binding to plate-coated hGITR-L
[3] = molecular target: T2, human GITR expressed on the cell surface (human, UniProt Q9Y5U5 26-241); test: cell-based or functional assay
T2 sequence: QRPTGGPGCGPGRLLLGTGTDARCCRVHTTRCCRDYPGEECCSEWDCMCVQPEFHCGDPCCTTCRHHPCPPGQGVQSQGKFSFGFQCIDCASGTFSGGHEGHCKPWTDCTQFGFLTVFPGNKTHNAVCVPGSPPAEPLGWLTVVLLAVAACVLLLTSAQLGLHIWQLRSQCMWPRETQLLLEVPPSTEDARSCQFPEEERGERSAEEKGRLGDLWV

[4] = molecular target: T3, cynomolgus monkey GITR expressed on the cell surface (Macaca fascicularis (cynomolgus monkey)); test: flow cytometry, AF647-conjugated antibody on CD4+ CD69+ cynomolgus monkey primary T cells, donor 58945
T3 construct: whole, on cells; also called MfGITR; Jurkat/hCD20/MfGITR cells
Method: FIG. 7 depicts antibody binding to CD69+ cynomolgus monkey primary T-cells. Primary cynomolgus monkey T-cells from 4 separate donors were stimulated in vitro with anti-CD2/anti-CD3/anti-CD28-coated beads. Cell-surface binding of AF647-conjugated mAb1 and AF647-conjugated IgG1 isotype control at a range of concentrations (8 pM to 200 nM) on CD69⁺ and CD69⁻ cynomolgus monkey primary CD4⁺ and CD8⁺ T-cells was detected using flow cytometry. Fluorescence intensity was plotted as geometric MFI. Mf, Macaca fascicularis (cynomolgus monkey)
Peripheral blood mononuclear cells (PBMC) were isolated from human or cynomolgus monkey whole blood (4 donors each) using density centrifugation through Ficoll-Paque PLUS in SepMate tubes (for human PBMC) or 50 mL conical tubes (for cynomolgus monkey PBMC) and transferred to a fresh conical tube for incubation in Red Blood Cell (RBC) Lysis Buffer. […] After 4 days, activation beads were removed from the culture using a MACSiMAG Separator, and cells were collected and counted.
Flow cytometry was used to evaluate mAb1 binding to human or cynomolgus monkey T-cells in activated PBMC. […] Data were analyzed with Flowio software. For EC₅₀ determinations, measured geometric MFI values were analyzed using a 4-parameter logistic equation over a 12-point response curve with GraphPad Prism.

B1: mAb1 (antibody, human IgG1, kappa, V domains shown)
VH: QVQLQESGPGLVKPSETLSLTCIVSGGSISGYFWNWIRQPPGKGLEWIGYIYYSGTTIYNPSLKSRFTISLDTSKNQFSLKLTSVTAADTAVYYCARESYDPSPRYFDHWGQGTLVTVSS
VL: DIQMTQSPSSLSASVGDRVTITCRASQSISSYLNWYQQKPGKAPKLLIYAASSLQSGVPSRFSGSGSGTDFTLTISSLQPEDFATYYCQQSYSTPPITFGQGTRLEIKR
notes: Human IgG1; N101D variant of CompAb1; also called N101D Variant; N101D
Question: What does the source list for B1?
Answer: Kd [1]: 14.8 nM; t1/2 [1]: 7.52 min; IC50 [2]: 6.66 nM; EC50, ADCC against human primary CD8+ T-cells Donor 0200R, NK Donor 05001 [3]: 0.139 nM; EC50, ADCC against human primary CD8+ T-cells Donor 0400N, NK Donor 04003 [3]: 0.0764 nM; EC50, ADCC against human primary CD8+ T-cells Donor 0400N, NK Donor 05001 [3]: 0.116 nM; EC50, ADCC against human primary CD8+ T-cells Donor 5100X, NK Donor 04003 [3]: 0.128 nM; EC50, ADCC against human primary CD8+ T-cells Donor 5100X, NK Donor 05001 [3]: 0.0951 nM; EC50, ADCC against human primary Tregs Donor 0200R, NK Donor 04003 [3]: 0.0399 nM; EC50, ADCC against human primary Tregs Donor 0200R, NK Donor 05001 [3]: 0.0647 nM; EC50, ADCC against human primary Tregs Donor 0400N, NK Donor 04003 [3]: 0.0372 nM; EC50, ADCC against human primary Tregs Donor 0400N, NK Donor 05001 [3]: 0.0449 nM; EC50, ADCC against human primary Tregs Donor 5100X, NK Donor 04003 [3]: 0.0888 nM; EC50, ADCC against human primary Tregs Donor 5100X, NK Donor 05001 [3]: 0.0834 nM; EC50 (read off the curve) [4]: ~4 nM
